In PMC4384115, “Molecular Recognition of PTS-1 Cargo Proteins by Pex5p: Implications for Protein Mistargeting in Primary Hyperoxaluria” (Biomolecules, 2015):

Tests used:
CHO cells [1] = experiment: Confocal immunofluorescence colocalization of AGT with mitochondria (Mitotracker) in transfected CHO cells; format: cell-based, Chinese hamster; details: transiently transfected CHO cells; for Pearson Rr, AGT + Mitotracker: fixed 72 h after transfection, mean ± S.E.
Procedure: (§1) Chinese hamster ovary (CHO) cells (ATTC, Rockville, MD USA) were grown in alpha-minimal essential medium (α-MEM, Lonza, Köln, Germany) supplemented with glutamine, penicillin/streptomycin and 5% fetal bovine serum. Cell transfections were performed using AGT cDNA variants (AGT-LRM or AGT-LRM-SKL) subcloned in pCIneo plasmids (Promega) with Transfast reagent (Promega, Madison, WI, USA), following manufacturer’s guidelines. After 24 h, cells were passed to plates containing 13 mm glass coverslips for immunofluorescence studies. Mitochondria in half the coverslips were labeled by incubation with Mitotracker (CMXRos, Invitrogen, Carlsbad, CA, USA) at the end of the culture. Cells were fixed with 2% paraformaldehyde 72 h after transfection and immunofluorescence was performed as previously described. Images were acquired with a laser scanning confocal microscope (Olympus Inverted IX81, Tokyo, Japan) using a 60× objective with immersion oil.
(§2) For quantitative immune-colocalization, the system was optimized to detect two fluorescent signals in one specimen: one in the green channel detector for protein of interest AGT-LRM or AGT-LRM-SKL and the other in the red channel, for either mitochondria labeled with mitotracker or peroxisomes labeled with peroxisomal membrane protein 70 (PMP70) antibody. When the two were seen to overlap (colocalization), it was assumed to be due to fluorescently labeled molecules binding to very close or indeed identical spatial positions. Colocalization events (or the lack thereof) were analyzed quantitatively with FluoView software (Olympus, Tokyo, Japan) and ImageJ software (NIH, Bethesda, MD, USA) with the JACoP plugin, based on a global statistic approach that conducts an intensity correlation coefficient-based examination. The Fisher transformation was applied to data obtained from ImageJ as well when calculating the mean values of colocalization coefficients and constructing the respective 95% confidence intervals. Descriptive statistical analysis of colocalization parameters (Pearson’s coefficient, Manders’ overlap coefficient and split Manders’ coefficients) was performed.

CHO cells [2] = experiment: Confocal immunofluorescence colocalization of AGT with peroxisomes (PMP70) in transfected CHO cells; format: cell-based, Chinese hamster; details: for amount of protein localized in peroxisomes / Pearson Rr, AGT + PMP70: transiently transfected CHO cells; for Pearson Rr, AGT + PMP70: fixed 72 h after transfection
Procedure: as §1, §2

Molecule | colocalization with mitotracker in the mitochondria (CHO cells [1]) | Pearson Rr, AGT + Mitotracker (CHO cells [1]) | Pearson Rr, AGT + Mitotracker (CHO cells [1]; SEM) | % Coloc (Manders' m), AGT + PMP70 (CHO cells [2]; CHO cells, mean ± S.E., given as fraction, split Manders' M1 in situation 2, Manders' overlap R in situation 4, SEM) | amount of protein localized in peroxisomes (CHO cells [2]) | Pearson Rr, AGT + PMP70 (CHO cells [2]; mean ± S.E.) | Pearson Rr, AGT + PMP70 (CHO cells [2]; mean ± S.E., SEM)
AGT-LRM: human AGT variant p.P11L/p.G170R/p.I340M, mistargeting PH1 variant (protein, UniProt P21549 1-392, looked up, variant P11L G170R I340M) Alanine--glyoxylate …: MASHKLLVTPLKALLKPLSIPNQLLLGPGPSNLPPRIMAAGGLQMIGSMSKDMYQIMDEIKEGIQYVFQTRNPLTLVISGSGHCALEAALVNVLEPGDSFLVGANGIWGQRAVDIGERIGARVHPMTKDPGGHYTLQEVEEGLAQHKPVLLFLTHGESSTGVLQPLDGFRELCHRYKCLLLVDSVASLGGTPLYMDRQGIDILYSGSQKALNAPPGTSLISFSDKAKKKMYSRKTKPFSFYLDIKWLANFWGCDDQPRMYHHTIPVISLYSLRESLALIAEQGLENSWRQHREAAAYLHGRLQALGLQLFVKDPALRLPTVTTVAVPAGYDWRDIVSYVMDHFDIEIMGGLGPSTGKVLRIGLLGCNATRENVDRVTEALRAALQHCPKKKL | 92% | 0.90 | 0.90 ± 0.12 | 0.17 ± 0.15 | 17% | 0.39 | 0.39 ± 0.15
AGT-LRM-SKL: AGT-LRM with PTS1 mutated to the consensus –SKL C-terminal tripeptide (protein, UniProt P21549 1-392, looked up, variant P11L G170R I340M K390S L392L) Alanine--glyoxylate …: MASHKLLVTPLKALLKPLSIPNQLLLGPGPSNLPPRIMAAGGLQMIGSMSKDMYQIMDEIKEGIQYVFQTRNPLTLVISGSGHCALEAALVNVLEPGDSFLVGANGIWGQRAVDIGERIGARVHPMTKDPGGHYTLQEVEEGLAQHKPVLLFLTHGESSTGVLQPLDGFRELCHRYKCLLLVDSVASLGGTPLYMDRQGIDILYSGSQKALNAPPGTSLISFSDKAKKKMYSRKTKPFSFYLDIKWLANFWGCDDQPRMYHHTIPVISLYSLRESLALIAEQGLENSWRQHREAAAYLHGRLQALGLQLFVKDPALRLPTVTTVAVPAGYDWRDIVSYVMDHFDIEIMGGLGPSTGKVLRIGLLGCNATRENVDRVTEALRAALQHCPKSKL | 40% | 0.47 |  |  | 84% | 0.79 | 
